Laboratory results reported in patent publication US20230036161A1, “AGENT FOR USE IN THE TREATMENT AND PROPHYLAXIS OF POSTISCHEMIC TISSUE INJURY” (Eberhard Karls Universität Tübingen Medizinische Fakultät, priority 2020, published 2023).

Experiments:
[1] = system: WT platelets; assay: Flow chamber: thrombus formation on collagen in flow, whole-blood perfusion; type: cell-based, mouse
Description: (§1) Platelet adhesion in flow was measured by perfusion of murine whole blood on collagen-coated coverslips (200 μg/ml fibrillar type I collagen) at 1000 s^−1 or 400 s^−1, as indicated. Platelets were labeled with a DyLight 488-conjugated anti-GPIX Ig derivative ([…]) and treated with rmSema7a or IgG2A Fc for 5 minutes at 37° C. before perfusion. In the case of treatment with GPlb-blocking antibody, 100 μg/mouse p0p/B Fab was injected intravenously 20 minutes before blood collection for the experiment. In further experiments, blood from animals with […] GPlb (GPlb-IL4tg) was used.

[2] = system: WT animals; assay: Murine myocardial ischemia and reperfusion model, rmSema7a injected into WT animals; type: in vivo, mouse
Description: This animal model has been described in detail in the prior art. Subgroups of animals received either recombinant mouse Sema7a (rmSema7a) or recombinant mouse IgG2A Fc (rmlgG2A Fc; control) intravenously before the start of the experiment or Sema7a antibody (abcam ab23578, Cambridge, UK; anti-Sema7a) or as control rabbit IgG sc-2027 (Santa Cruz Biotechnology, Santa Cruz, USA) 5 minutes before the start of reperfusion.
The Vectastain ABC kit (Linaris, Wertheim, Germany) was used for immunohistochemical staining. After inhibition of the nonspecific binding sites with avidin blocking solution (Vector), the sections were incubated with primary antibodies (rabbit anti-mouse CD41, abcam, Cambridge, UK) overnight at 4° C. Tissue sections were then incubated with biotinylated rabbit anti-IgG for 1 hour, followed by Vectastain ABC reagent for 30 minutes, then developed over DAB substrate. For PMN staining, the procedure was repeated using rat anti-mouse neutrophil antibody (BioRad, Serotec, Puchheim, Germany) and HistoGreen as substrate (Linaris, Wertheim, Germany). Counterstaining was performed with Nuclear Fast Red (Linaris, Wertheim, Germany). Histological sections were analyzed for the presence of PNCs by manual counting within 3 independent tissue sections of each animal at a magnification of […].
(§2) Troponin blood plasma levels of samples collected by central venous puncture after 120 minutes of reperfusion were measured for murine troponin I type 3 (TNNI3) using the SEA478Mu ELISA kit (Cloud-Clone Corp, Houston, USA).
For flow cytometric analysis, the following antibodies were used and freshly prepared before the experiment: rat anti-mouse Ly6G (Biolegend, clone 1A8) labeled with BV421 (Biolegend 127628), rat anti-mouse CD42b-FITC (Emfret, clone Xia.G5), rat anti-mouse CD62P (BD Pharmingen, clone RB40.34) labeled with Alexa Fluor 647 (BD 563674), rat anti-mouse activated GPIlb/IIIa-PE (Emfret, clone JON/A).
After staining, sampling focused peripheral granulocytes by their granularity and surface expression of the lymphocyte antigen-6 complex, locus G (Ly-6G), referred to as SSC/Ly-6G+. The presence of the platelet surface marker CD42b on the surface of SSC/Ly-6G+ events distinguished SSC/Ly-6G+/CD42b+ platelet-neutrophil complexes (PNCs) from freely circulating SSC/Ly-6G+/CD42b- PMNs. These two populations were tested for their representation of the surface transmembrane glycoprotein P-selectin (CD62P) and activated GPIlb/IIIa (clone JON/A) (not shown).

[3] = system: GPlb-IL-4-tg platelets; assay: Flow chamber: thrombus formation on collagen in flow, blood of GPlb-IL-4tg mice; type: cell-based, mouse; conditions: shear rate 1000 s−1
Description: as §1

[4] = system: Sema7a^loxP/loxP HBBCre+ animals; assay: Murine myocardial ischemia and reperfusion model, reconstitution of Sema7a loxP/loxP HbbCre+ animals with rmSema7a; type: in vivo, mouse
Source text: Sema7a^−/−mice were generated, validated and characterized as described in the prior art. The corresponding WT controls were bred as littermates of the Sema7a mice. In a subset of experiments, a newly generated Sema7a flox mouse line (Sema7a^loxP/loxP/Ozgene) on a C57BL/6 background was crossed with the following Cre recombinase-positive mouse lines to obtain tissue-specific gene deletion: Erythrocyte-specific HbbCre+, myocardial cell-specific Myh6Cre+; endothelial cell-specific Tie2Cre+; and immune cell-specific LysMCre+. Tissue-specific gene deletions of Sema7a mouse lines (Sema7a^loxP/loxP HbbCre+; Sema7a^loxP/loxP Myh6Cre+, […], and Sema7a^loxP/loxP LysMCre+) were used in the experiments. Sema7a^loxP/loxP Cre-negative (−) littermates were used as controls. […]
The Vectastain ABC kit (Linaris, Wertheim, Germany) was used for immunohistochemical staining. […] Histological sections were analyzed for the presence of PNCs by manual counting within 3 independent tissue sections of each animal at a magnification of […].
as §2

[5] = system: neutrophils; assay: Neutrophil rolling/adhesion, coated capillaries and intravital microscopy of cremaster; design: species or system mouse; conditions: in vitro and in vivo
Description: Mice were anesthetized, and cremasal tissue was dissected under a Nikon 20×water immersion lens (NA=0.32). Neutrophils were resuspended with 20 μl of anti-Ly6G (Biolegend 127608) and platelets with 20 μl of platelet-specific FITC-labeled X488 antibody (emfret, Eibelstadt, Germany) in 200 μl and administered i.v. Videos of postcapillary cremaster venules 20-40 μm in diameter were recorded using a Hamamatsu Orca Flash 4.0 camera mounted on a dual-emission image splitter (optoSplit II, Cairn Research; UK) at a rate of 16 frames/s (for videos totaling 10 seconds) and with a resolution of 2048×1024 pixels mounted on a Nikon Eclipse Ci-L microscope (Nikon, Dusseldorf; Germany) operated by NIS elements Ar software. Videos were recorded before administration of rmSema7a i.v., and videos were recorded at 20-second intervals for 5 minutes after incubation for 15 minutes. Neutrophil velocity (μm/sec) was calculated from manually tracked cells, stationary neutrophils were counted (cell count/mm^2), platelet sedimentation on the vessel wall was measured (normalized MFI %/mm), transmigrated cells from the vasculature after 15 min exposure to rmSema7a were counted (cell count/mm^2), the distance of transmigrated cells measured in μm in all videos was calculated using NIS elements Ar software 4.20-64 bit processed (Nikon, Dusseldorf, Germany).

[6] = system: human cardiac myocytes (HMCs); assay: Caspase 3 staining and caspase 3 ELISA in cardiac myocytes; type: cell-based; conditions: 1 μg/ml; cardiomyocytes
Description: Human cardiac myocytes (HMC-c; PromoCell, Heidelberg, Germany) were grown to confluence on chamber slides followed by 6 hours of stimulation with rhSEMA7A, rhlgG1 Fc, BSA, or staurosporine (Sigma-Aldrich, Munich, Germany), 1 μg/ml each. After fixation, cells were stained with rabbit polyclonal anticaspase3 (abcam, Cambridge, UK).

Row | Molecule | adhesion and thrombus formation of WT platelets on collagen in flow ([1]; shear rate 400 s^−1) | adhesion and thrombus formation of WT platelets on collagen in flow ([1]; shear rate 1000 s^−1) | infarct size ([2]; 1 μg/mouse before reperfusion, compared with rmIgG2A Fc control) | numbers of PNCs in tissue areas at risk (histological sections) ([2]; compared with Fc controls) | tissue damage in histological sections ([2]; compared with Fc controls) | PNCs extravasated into the myocardium in the AAR ([2]; flow cytometry) | numbers of PNCs in the blood ([2]; flow cytometry) | signals for GPlb, P-selectin, and activated integrin αIIbβ3 (JON/A) on conjugates in the AAR ([2]; flow cytometry) | signals for the platelet markers GPlb, CD62P, and activated integrin αIIbβ3 (JON/A) on conjugates in blood ([2]; flow cytometry) | troponin I ([2]; plasma, 120 min, compared with Fc control) | adhesion or thrombus formation of GPlb-IL-4-tg platelets on collagen in flow [3] | reduction in infarct size, plasma TnI and PNCs seen in Sema7a loxP/loxP HbbCre+ animals ([4]; injection of rmSema7a) | MIRI ([4]; ischemia 1 h, reperfusion 2 h, vs Fc control) | neutrophil adhesion [5] | pro-apoptotic effect assessed by caspase 3 activation [6]
1 | rmSema7a: recombinant mouse Sema7a fusion protein (R&D SYSTEMS, Minneapolis, USA) (protein, left off: a dimerising Fc or GST) QGHSRSGPRISAVWKGQDHVDFSQPEPHTVLFHEPGSFSVWVGGRGKVYHFNFPEGKNASVRTVNIGSTKGSCQDKQDCGNYITLLERRGNGLLVCGTNARKPSCWNLVNDSVVMSLGEMKGYAPFSPDENSLVLFEGDEVYSTIRKQEYNGKIPRFRRIRGESELYTSDTVMQNPQFIKATIVHQDQAYDDKIYYFFREDNPDKNPEAPLNVSRVAQLCRGDQGGESSLSVSKWNTFLKAMLVCSDAATNRNFNRLQDVFLLPDPSGQWRDTRVYGVFSNPWNYSAVCVYSLGDIDRVFRTSSLKGYHMGLPNPRPGMCLPKKQPIPTETFQVADSHPEVAQRVEPMGPLKTPLFHSKYHYQKVVVHRMQASNGETFHVLYLTTDRGTIHKVVESGDQDHSFVFNIMEIQPFHRAAAIQAISLDADRRKLYVTSQWEVSQVPLDMCEVYSGGCHGCLMSRDPYCGWDQDRCVSIYSSQRSVLQSINPAEPHRECPNPKPDEAPLQKVSLARNSRYYLTCPMESRHATYLWRHEENVEQSCEPGHQSPSCILFIENLTARQYGHYRCEAQEGSYLREAQHWELLPEDRALAEQLMGHARALA | markedly enhances | markedly enhances | significantly increased infarct size | decreased numbers of PNCs | increased tissue damage | more PNCs extravasated | significantly increased numbers of PNCs | significantly increased signals | stronger signals | increased troponin I | does not affect | these results were reversed | increased MIRI | affected neutrophil adhesion | 
2 | rhSEMA7A: recombinant human SEMA7A (protein, UniProt O75326 45-648, looked up) Semaphorin-7A: QGHLRSGPRIFAVWKGHVGQDRVDFGQTEPHTVLFHEPGSSSVWVGGRGKVYLFDFPEGKNASVRTVNIGSTKGSCLDKRDCENYITLLERRSEGLLACGTNARHPSCWNLVNGTVVPLGEMRGYAPFSPDENSLVLFEGDEVYSTIRKQEYNGKIPRFRRIRGESELYTSDTVMQNPQFIKATIVHQDQAYDDKIYYFFREDNPDKNPEAPLNVSRVAQLCRGDQGGESSLSVSKWNTFLKAMLVCSDAATNKNFNRLQDVFLLPDPSGQWRDTRVYGVFSNPWNYSAVCVYSLGDIDKVFRTSSLKGYHSSLPNPRPGKCLPDQQPIPTETFQVADRHPEVAQRVEPMGPLKTPLFHSKYHYQKVAVHRMQASHGETFHVLYLTTDRGTIHKVVEPGEQEHSFAFNIMEIQPFRRAAAIQTMSLDAERRKLYVSSQWEVSQVPLDLCEVYGGGCHGCLMSRDPYCGWDQGRCISIYSSERSVLQSINPAEPHKECPNPKPDKAPLQKVSLAPNSRYYLSCPMESRHATYSWRHKENVEQSCEPGHQSPNCILFIENLTAQQYGHYFCEAQEGSYFREAQHWQLLPEDGIMAEHLLGHACALA |  |  |  |  |  |  |  |  |  |  |  |  |  |  | no direct pro-apoptotic effect
